Assay [1] concerns the target T1, FcγRIIb extracellular domain with C-terminal His tag (human, UniProt P31994 43-217).
T1 construct: extracellular domain; Soluble receptor expressed in FreeStyle293 cells, used as analyte in Biacore; also called FcgRIIb; CD32B; not shown: His tag at the C terminus
T1 sequence (looked up): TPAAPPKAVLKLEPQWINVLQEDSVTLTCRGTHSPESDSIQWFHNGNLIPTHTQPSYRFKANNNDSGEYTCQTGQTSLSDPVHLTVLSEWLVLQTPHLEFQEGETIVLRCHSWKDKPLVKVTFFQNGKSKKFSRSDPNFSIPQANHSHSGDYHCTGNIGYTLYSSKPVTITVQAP
Briefly: SPR (Biacore), antibody captured via antigen peptide, FcγR as analyte; binding relative to GpH7-A5/GpH7-B3/GpL16-k0 = 100. In general terms: Surface plasmon resonance follows binding to a sensor surface in real time, without labels.

In assay [2] the target is T2, FcγRIa extracellular domain with C-terminal His tag (human, UniProt P12314 16-292).
T2 construct: extracellular domain; Soluble receptor expressed in FreeStyle293 cells, used as analyte in Biacore; also called FcgRI; CD64; not shown: His tag at the C terminus
T2 sequence (P12314 16-292): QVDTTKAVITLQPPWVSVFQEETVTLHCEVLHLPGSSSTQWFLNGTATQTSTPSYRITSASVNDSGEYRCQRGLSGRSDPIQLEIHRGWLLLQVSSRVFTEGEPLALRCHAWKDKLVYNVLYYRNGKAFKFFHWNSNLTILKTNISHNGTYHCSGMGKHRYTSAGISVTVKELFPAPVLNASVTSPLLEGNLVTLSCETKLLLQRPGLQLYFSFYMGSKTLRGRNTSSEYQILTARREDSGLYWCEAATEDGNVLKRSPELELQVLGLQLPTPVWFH
The description is as above.

The next assay has as its target T3, FcγRIa (human, UniProt P12314 16-292).
T3 construct: extracellular domain; also called FcgRI; 1a; not shown: His tag at the C terminus
Briefly: SPR (Biacore), antibody captured, FcγR as analyte; binding as % of GpH7-A5/GpH7-B3/GpL16-k0.

The next assay has as its target T4, FcγRIIb (human, UniProt P31994 43-217).
T4 construct: extracellular domain; also called FcgRIIb; 2b; not shown: His tag at the C terminus
T4 sequence (looked up): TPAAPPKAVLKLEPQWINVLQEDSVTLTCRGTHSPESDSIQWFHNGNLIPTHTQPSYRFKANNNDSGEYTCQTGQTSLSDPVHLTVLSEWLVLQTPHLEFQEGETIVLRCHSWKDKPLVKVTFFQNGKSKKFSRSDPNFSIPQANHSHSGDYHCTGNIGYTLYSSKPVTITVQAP
The assay is described as above.

T3 sequence (P12314 16-292): as the sequence (P12314 16-292) above

B1: GpH7-A5/GpH7-B3 variant P271_14T/GpL16-k0 (antibody, human IgG1, kappa)
heavy 1: not shown
heavy 2: not shown
light: DIVMTQSPLSLPVTPGEPASISCQASESLVHSNRNTYLHWYLQKPGQSPQLLIYKVSNRFSGVPDRFSGSGSGTDFTLKISRVEAEDVGVYYCSQNTHVPPTFGQGTKVEIERTVAAPSVFIFPPSDEQLKSGTASVVCLLNNFYPREAKVQWKVDNALQSGNSQESVTEQDSKDSTYSLSSTLTLSKADYEKHKVYACEVTHQGLSSPVTKSFNRGEC
notes: Heterodimerized anti-glypican-3 IgG1; substitution in only one H chain; also called P271T; He Ab
For B1, the He/Con_2b in assay [1] is 95.4 % of control (GpH7-A5/GpH7-B3/GpL16-k0 = 100). In assay [2], the He/Con_1a is 102 % of control (GpH7-A5/GpH7-B3/GpL16-k0 = 100).

B2: GpH7-A5/GpH7-B3 variant Q295_03V/GpL16-k0 (antibody, human IgG1, kappa)
heavy 1: not shown
heavy 2: not shown
light: DIVMTQSPLSLPVTPGEPASISCQASESLVHSNRNTYLHWYLQKPGQSPQLLIYKVSNRFSGVPDRFSGSGSGTDFTLKISRVEAEDVGVYYCSQNTHVPPTFGQGTKVEIERTVAAPSVFIFPPSDEQLKSGTASVVCLLNNFYPREAKVQWKVDNALQSGNSQESVTEQDSKDSTYSLSSTLTLSKADYEKHKVYACEVTHQGLSSPVTKSFNRGEC
notes: Heterodimerized anti-glypican-3 IgG1; substitution in only one H chain; also called Q295V; He Ab
For B2, in assay [1], the He/Con_2b is 75.7 % of control (GpH7-A5/GpH7-B3/GpL16-k0 = 100). In addition, in assay [2], the He/Con_1a was 104 % of control (GpH7-A5/GpH7-B3/GpL16-k0 = 100).

B3: GpH7-A5/GpH7-B3 variant P271_20W/GpL16-k0 (antibody, human IgG1, kappa)
heavy 1: not shown
heavy 2: not shown
light: DIVMTQSPLSLPVTPGEPASISCQASESLVHSNRNTYLHWYLQKPGQSPQLLIYKVSNRFSGVPDRFSGSGSGTDFTLKISRVEAEDVGVYYCSQNTHVPPTFGQGTKVEIERTVAAPSVFIFPPSDEQLKSGTASVVCLLNNFYPREAKVQWKVDNALQSGNSQESVTEQDSKDSTYSLSSTLTLSKADYEKHKVYACEVTHQGLSSPVTKSFNRGEC
notes: Heterodimerized anti-glypican-3 IgG1; substitution in only one H chain; also called P271W; He Ab
Regarding B3, the He/Con_2b in assay [1] is 58.1 % of control (GpH7-A5/GpH7-B3/GpL16-k0 = 100). Further, the He/Con_1a in assay [2] is 103 % of control (GpH7-A5/GpH7-B3/GpL16-k0 = 100).

B4: GpH7-A5/GpH7-B3 variant N325_09D/GpL16-k0 (antibody, human IgG1, kappa)
heavy 1: not shown
heavy 2: not shown
light: DIVMTQSPLSLPVTPGEPASISCQASESLVHSNRNTYLHWYLQKPGQSPQLLIYKVSNRFSGVPDRFSGSGSGTDFTLKISRVEAEDVGVYYCSQNTHVPPTFGQGTKVEIERTVAAPSVFIFPPSDEQLKSGTASVVCLLNNFYPREAKVQWKVDNALQSGNSQESVTEQDSKDSTYSLSSTLTLSKADYEKHKVYACEVTHQGLSSPVTKSFNRGEC
notes: heterodimerized IgG1; alteration in the GpH7-B3 H chain only; also called He Ab
Take B4: the He/Con_1a in the assay with FcγRIa is 99.9 % of control. Also, in the assay with FcγRIIb, the He/Con_2b is 124 % of control.

B5: GpH7-A5/GpH7-B3 variant P331_04F/GpL16-k0 (antibody, human IgG1, kappa)
heavy 1: not shown
heavy 2: not shown
light: DIVMTQSPLSLPVTPGEPASISCQASESLVHSNRNTYLHWYLQKPGQSPQLLIYKVSNRFSGVPDRFSGSGSGTDFTLKISRVEAEDVGVYYCSQNTHVPPTFGQGTKVEIERTVAAPSVFIFPPSDEQLKSGTASVVCLLNNFYPREAKVQWKVDNALQSGNSQESVTEQDSKDSTYSLSSTLTLSKADYEKHKVYACEVTHQGLSSPVTKSFNRGEC
notes: as for B4
Take B5: in the assay with FcγRIa, the He/Con_1a is 95.5 % of control. Also, in the assay with FcγRIIb, the He/Con_2b was 110 % of control.

B6: GpH7-A5/GpH7-B3 variant P271_19Q/GpL16-k0 (antibody, human IgG1, kappa)
heavy 1: not shown
heavy 2: not shown
light: DIVMTQSPLSLPVTPGEPASISCQASESLVHSNRNTYLHWYLQKPGQSPQLLIYKVSNRFSGVPDRFSGSGSGTDFTLKISRVEAEDVGVYYCSQNTHVPPTFGQGTKVEIERTVAAPSVFIFPPSDEQLKSGTASVVCLLNNFYPREAKVQWKVDNALQSGNSQESVTEQDSKDSTYSLSSTLTLSKADYEKHKVYACEVTHQGLSSPVTKSFNRGEC
notes: Heterodimerized anti-glypican-3 IgG1; substitution in only one H chain; also called P271Q; He Ab
As to B6, in assay [1], the He/Con_2b was 88.6 % of control (GpH7-A5/GpH7-B3/GpL16-k0 = 100). In addition, the He/Con_1a in assay [2] is 103 % of control (GpH7-A5/GpH7-B3/GpL16-k0 = 100).

B7: GpH7-A5/GpH7-B3 variant P271_16H/GpL16-k0 (antibody, human IgG1, kappa)
heavy 1: not shown
heavy 2: not shown
light: DIVMTQSPLSLPVTPGEPASISCQASESLVHSNRNTYLHWYLQKPGQSPQLLIYKVSNRFSGVPDRFSGSGSGTDFTLKISRVEAEDVGVYYCSQNTHVPPTFGQGTKVEIERTVAAPSVFIFPPSDEQLKSGTASVVCLLNNFYPREAKVQWKVDNALQSGNSQESVTEQDSKDSTYSLSSTLTLSKADYEKHKVYACEVTHQGLSSPVTKSFNRGEC
notes: Heterodimerized anti-glypican-3 IgG1; substitution in only one H chain; also called P271H; He Ab
For the molecule B7, the He/Con_2b in assay [1] is 67.9 % of control (GpH7-A5/GpH7-B3/GpL16-k0 = 100). Further, the He/Con_1a in assay [2] was 102 % of control (GpH7-A5/GpH7-B3/GpL16-k0 = 100).

B8: GpH7-A5/GpH7-B3 variant Q295_05P/GpL16-k0 (antibody, human IgG1, kappa)
heavy 1: not shown
heavy 2: not shown
light: DIVMTQSPLSLPVTPGEPASISCQASESLVHSNRNTYLHWYLQKPGQSPQLLIYKVSNRFSGVPDRFSGSGSGTDFTLKISRVEAEDVGVYYCSQNTHVPPTFGQGTKVEIERTVAAPSVFIFPPSDEQLKSGTASVVCLLNNFYPREAKVQWKVDNALQSGNSQESVTEQDSKDSTYSLSSTLTLSKADYEKHKVYACEVTHQGLSSPVTKSFNRGEC
notes: Heterodimerized anti-glypican-3 IgG1; substitution in only one H chain; also called Q295P; He Ab
Turning to B8, in assay [1], the He/Con_2b was 67.5 % of control (GpH7-A5/GpH7-B3/GpL16-k0 = 100). The He/Con_1a in assay [2] is 103 % of control (GpH7-A5/GpH7-B3/GpL16-k0 = 100).

B9: GpH7-A5/GpH7-B3 variant P331_10E/GpL16-k0 (antibody, human IgG1, kappa)
heavy 1: not shown
heavy 2: not shown
light: DIVMTQSPLSLPVTPGEPASISCQASESLVHSNRNTYLHWYLQKPGQSPQLLIYKVSNRFSGVPDRFSGSGSGTDFTLKISRVEAEDVGVYYCSQNTHVPPTFGQGTKVEIERTVAAPSVFIFPPSDEQLKSGTASVVCLLNNFYPREAKVQWKVDNALQSGNSQESVTEQDSKDSTYSLSSTLTLSKADYEKHKVYACEVTHQGLSSPVTKSFNRGEC
notes: as for B4
B9: in the assay with FcγRIa, the He/Con_1a is 95 % of control. Also, the He/Con_2b in the assay with FcγRIIb is 116 % of control.

These data come from patent US20180155451A1 (published 2018).
